The text below walks through data of paper PMC10512467, “Alternative splicing of a single exon causes a major impact on the affinity of Caenorhabditis elegans tropomyosin isoforms for actin filaments” (Frontiers in Cell and Developmental Biology, 2023).

This assay concerns the target F-actin (actin purified from rabbit muscle acetone powder) (rabbit, UniProt P68135 1-377). As to the kind of experiment: co-sedimentation; F-actin co-sedimentation (supernatant depletion): constant 2 uM LEV-11 isoform with 0-60 uM F-actin, 1 h, in F-buffer (0.1 M KCl, 2 mM MgCl2, 20 mM HEPES-KOH, pH 7.5, 1 mM dithiothreitol); 200,000 x g for 20 min; bound portion from the depletion of the supernatant, SDS-PAGE densitometry. To be noted: both partners purified.

B1: LEV-11T (C. elegans low-molecular-weight tropomyosin isoform, exons E3b-E4a-E5a-E6-E7b-E8-E9b), recombinant with extra Ala-Ser after the initiator Met (natural protein)
chain: MASSKVNKEGAQQTSLLDVLKKKMRQAREEAEAAKDEADEVKRQLEEERKKREDAEAEVAALNRRIVLVEEDLERTEDRLKTATSKLEQATKAADEADRARKSMETRSQQDEERANFLETQVDEAKVIAEDADRKYEEVARKLAMVEADLERAEERAEAGENKIVELEEELRVVGNNLKSLEVSEEKALQREDSYEEQIRTVSSRLKEAETRAEFAERSVQKLQKEVDRLEELRDAEVLKARQLQDELDHMVQELNSV
In general, Kd refers to the equilibrium constant for the complex coming apart. In turn, B1 gave a Kd of 3.7 µM.
